T1: rat G-protein Gαq in rat hippocampal membranes (rat, UniProt P82471 1-359)
T1 construct: also called Gq
T1 sequence (looked up): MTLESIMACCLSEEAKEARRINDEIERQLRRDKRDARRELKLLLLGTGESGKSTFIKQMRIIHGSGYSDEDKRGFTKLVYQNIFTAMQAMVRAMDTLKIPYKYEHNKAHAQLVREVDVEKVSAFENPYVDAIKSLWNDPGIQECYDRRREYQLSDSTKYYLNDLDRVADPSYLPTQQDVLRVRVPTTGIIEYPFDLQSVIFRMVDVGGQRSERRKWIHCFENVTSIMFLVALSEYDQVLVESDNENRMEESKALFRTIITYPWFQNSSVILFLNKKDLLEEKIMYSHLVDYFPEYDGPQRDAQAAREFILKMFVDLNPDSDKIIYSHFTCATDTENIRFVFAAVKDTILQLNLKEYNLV


How the values were obtained:
[1] = target: T1, rat G-protein Gαq in rat hippocampal …; assay: stimulation of ^35S-GTPγS binding by the peptide in rat hippocampal membranes
[2] = target: tail-less PS-1 (amino acids 1-430 of PS-1) (human, UniProt P49768 1-430); assay: co-immunoprecipitation with MAb to the PS-1 loop, Western blot with anti-Go
Description: Verification of the binding of G-protein Gₒ to the cytoplasmic carboxyl terminus of PS-1. A tail-less construct of PS-1 was made in pcDNA3 in which only the cytoplasmic domain of PS-1 immediately following the last TM-domain is deleted (this construct comprises amino acids 1-430). This construct was used to transfect ES (PS-1^{-/-}/PS-2^{-/-}) cells. […] In an identical strategy to the one described above for full-length PS-1, ES (PS-1^{-/-}/PS-2^{-/-}) cells were transfected with cDNAs for tail-less PS-1 and the G-proteins GoA or GoB. Cells extracts were then subjected to immunoprecipitation with PS-1 loop MAb #5232), separated on SDS PAGE and Western blotted with antibodies to Gₒ.
100 μg of extract of ES (PS-1^{-/-}/PS-2^{-/-}) cells co-transfected with cDNAs for tail-less PS-1 and the G-protein GαoA or GαoB were immunoprecipitated with MAb to the large hydrophilic loop of PS-1, followed by Western blot hybridization with affinity purified polyclonal antibody to Gₒ (recognizes both isoforms, GoA and GoB).

Binder | binding result [1] | binding result [2]
KYLPE (Synthetic peptide; also called loop 3; Cytoplasmic Loop 3 peptide) [PS-1 cytoplasmic peptide ic3 (KYLPE)] | binds | 
TDYLVQPFMDQLAFHQFYI (Synthetic peptide; also called residues 21-39 of the C-tail) [PS-1 cytoplasmic peptide C(21-39), last 19 amino acids of the C-tail] | binds | 
human G-protein GαoB (other, Co-transfected with PS constructs in ES double-null cells; assayed in detergent extracts; also called GoB; GOB) GCTLSAEERAALERSKAIEKNLKEDGISAAKDVKLLLLGAGESGKSTIVKQMKIIHEDGFSGEDVKQYKPVVYSNTIQSLAAIVRAMDTLGIEYGDKERKADAKMVCDVVSRMEDTEPFSAELLSAMMRLWGDSGIQECFNRSREYQLNDSAKYYLDSLDRIGAADYQPTEQDILRTRVKTTGIVETHFTFKNLHFRLFDVGGQRSERKKWIHCFEDVTAIIFCVALSGYDQVLHEDETTNRMHESLKLFDSICNNKWFTDTSIILFLNKKDIFEEKIKKSPLTICFPEYTGPSAFTEAVAYIQAQYESKNKSAHKEIYTHVTCATDTNNIQFVFDAVTDVIIAKNLRGCGLY |  | no binding
